The subject of the test is NHEK. The experiment in a line: Migration/proliferation of NHEK, wound recovery by kinetic image analysis. Format: cell-based, human. Particulars: 10 ng/ml, single image. The method, then:
Botanical extracts were evaluated for anti-aging, cell renewal and anti-inflammatory properties via systemic application (diluted in the culture medium) using the concentrations that were determined not toxic for skin cells (0.1 mg/ml) followed by two successive 3-fold dilutions. The matrix metalloproteinase-1 (MMP-1) assay using a specific ELISA kit was used to evaluate anti-aging properties. The migration/proliferation of NHEK using kinetic image analysis of the wound recovery was used to evaluate cell renewal properties. The IL-8 release on NHEK stimulated by PMA using a specific ELISA kit was used to evaluate anti-inflammatory properties.

Here are results for one molecule from patent publication US11077159B2, “Compositions from halophyte plants and methods of use thereof” (KHALIFA UNIVERSITY OF SCIENCE AND TECHNOLOGY, priority 2017, dated 2021).

Values joined by “and” are separate entries in the source; they are usually repeats but may differ in a detail not shown here. Equal values may be shown once.

B1: EGF: control (EGF) at 10 ng/ml in the wound recovery assay (protein, UniProt P01133 23-1207, looked up)
Pro-epidermal growth factor: PQHWSCPEGTLAGNGNSTCVGPAPFLIFSHGNSIFRIDTEGTNYEQLVVDAGVSVIMDFHYNEKRIYWVDLERQLLQRVFLNGSRQERVCNIEKNVSGMAINWINEEVIWSNQQEGIITVTDMKGNNSHILLSALKYPANVAVDPVERFIFWSSEVAGSLYRADLDGVGVKALLETSEKITAVSLDVLDKRLFWIQYNREGSNSLICSCDYDGGSVHISKHPTQHNLFAMSLFGDRIFYSTWKMKTIWIANKHTGKDMVRINLHSSFVPLGELKVVHPLAQPKAEDDTWEPEQKLCKLRKGNCSSTVCGQDLQSHLCMCAEGYALSRDRKYCEDVNECAFWNHGCTLGCKNTPGSYYCTCPVGFVLLPDGKRCHQLVSCPRNVSECSHDCVLTSEGPLCFCPEGSVLERDGKTCSGCSSPDNGGCSQLCVPLSPVSWECDCFPGYDLQLDEKSCAASGPQPFLLFANSQDIRHMHFDGTDYGTLLSQQMGMVYALDHDPVENKIYFAHTALKWIERANMDGSQRERLIEEGVDVPEGLAVDWIGRRFYWTDRGKSLIGRSDLNGKRSKIITKENISQPRGIAVHPMAKRLFWTDTGINPRIESSSLQGLGRLVIASSDLIWPSGITIDFLTDKLYWCDAKQSVIEMANLDGSKRRRLTQNDVGHPFAVAVFEDYVWFSDWAMPSVMRVNKRTGKDRVRLQGSMLKPSSLVVVHPLAKPGADPCLYQNGGCEHICKKRLGTAWCSCREGFMKASDGKTCLALDGHQLLAGGEVDLKNQVTPLDILSKTRVSEDNITESQHMLVAEIMVSDQDDCAPVGCSMYARCISEGEDATCQCLKGFAGDGKLCSDIDECEMGVPVCPPASSKCINTEGGYVCRCSEGYQGDGIHCLDIDECQLGEHSCGENASCTNTEGGYTCMCAGRLSEPGLICPDSTPPPHLREDDHHYSVRNSDSECPLSHDGYCLHDGVCMYIEALDKYACNCVVGYIGERCQYRDLKWWELRHAGHGQQQKVIVVAVCVVVLVMLLLLSLWGAHYYRTQKLLSKNPKNPYEESSRDVRSRRPADTEDGMSSCPQPWFVVIKEHQDLKNGGQPVAGEDGQAADGSMQPTSWRQEPQLCGMGTEQGCWIPVSSDKGSCPQVMERSFHMPSYGTQTLEGGVEKPHSLLSANPLWQQRALDPPHQMELTQ
modifications: Pro-epidermal growth factor
notes: control (EGF) at 10 ng/ml in the wound recovery assay
B1: the Wound area is 0.86 mm^2 and 0.69 mm^2 and 0.89 mm^2 (16 hours); 0.64 mm^2 and 0.44 mm^2 and 0.63 mm^2 (24 hours).
